Literature values, collected in publication PMC7527559.
Where two headings read alike, the source gives them in different places.

How the values were obtained:
[1] = molecular target: RNA polymerase (Escherichia coli) (UniProt P0A7Z4)
[2] = molecular target: RNA polymerase (Escherichia coli) (UniProt P0A7Z4); remark: listed apart in the source

Sequence of GreA (P0A6W5 whole entry): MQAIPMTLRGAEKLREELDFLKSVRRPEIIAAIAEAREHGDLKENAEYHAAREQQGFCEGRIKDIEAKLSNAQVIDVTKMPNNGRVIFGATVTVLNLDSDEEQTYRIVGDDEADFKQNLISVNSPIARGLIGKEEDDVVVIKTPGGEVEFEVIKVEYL
Sequence of DksA (P0ABS1 whole entry): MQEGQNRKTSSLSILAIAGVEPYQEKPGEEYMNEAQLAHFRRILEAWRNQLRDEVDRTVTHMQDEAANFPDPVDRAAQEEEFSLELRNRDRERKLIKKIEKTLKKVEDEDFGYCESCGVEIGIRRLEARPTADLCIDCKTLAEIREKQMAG

Substance	Kd [1] [µM]	Kd [2] [µM]
DksA (from UniProt P0ABS1)	0.1	–
GreA (from UniProt P0A6W5)	–	0.8
